Experimental findings from the RNAGym collection of RNA variant scans (doi:10.1093/molbev/msab373) are described below.

To fix the notation:
B1: Azoarcus group I ribozyme (parent)
chain: GUGCCUUGCGCCGGGAAACCACGCAAGGGAUGGUGUCAAAUUCGGCGAAACCUAAGCGCCCGCCCGGGCGUAUGGCAACGCCGAGCCAAGCUUCGGCGCCUGCGCCGAUGAAGGUGUAGAGACUAGACGGCACCCACCUAAGGCAAACGCUAUGGUGAAGGCAUAGUCCAGGGAGUGGCGAAAGUCACACAAACCGG

The data set covers variants of B1. Description: reverse-splicing fitness (ratio to wild type); higher = more active; in vitro selection; Mg2+ level not given. The method in brief: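 An in vitro group I ribozyme library with randomized positions was T7-transcribed and gel-purified. In triplicate, 10 pmol RNA in EPPS pH 7.5 was reacted with 50 pmoles of a 30-nt RNA substrate for 1 h at 37 °C across several added MgCl2 levels (1–48 mM), then stopped with EDTA. Products were reverse transcribed from a substrate-complementary primer, PCR-amplified and sequenced (HiSeq 4000). Fitness is a variant's read proportion after selection over that before, normalised to wild type.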
For the variant C82A C150A U176A, the reverse-splicing fitness was 0.0524.

As to C82A C150A U176G, the reverse-splicing fitness stood at 0.021.

With C82A C150A U176C, the reverse-splicing fitness is 0.0632.

Turning to C82A C150G C169A, the reverse-splicing fitness was 0.00934.

Take C82A C150G C169G: the reverse-splicing fitness was found to be 0.00738.

Turning to C82A C150G C169U, the reverse-splicing fitness worked out at 0.00995.

Consider C82A C150G C169G U176C, for which the reverse-splicing fitness was determined as 0.00553.

Turning to C82A C150G C169G U176A, the reverse-splicing fitness is 0.00711.

For C82A C150G C169G U176G, the reverse-splicing fitness was found to be 0.00581.

Consider C82G A111C A120C C150G C169A U176G, for which the reverse-splicing fitness is 0.00619.

On to C82G A111C A120C C150G C169A U176C, for which the reverse-splicing fitness came to 0.0137.

Consider C82G A111C A120C C150G C169A U176A, for which the reverse-splicing fitness was found to be 0.00918.

With C82G A111C A120C A145U C150U, the reverse-splicing fitness was 0.0335.

Consider C82G A111C A120C A145U C150G, for which the reverse-splicing fitness worked out at 0.00916.

On to C82G A111C A120C A145U C150A, for which the reverse-splicing fitness was determined as 0.011.

As to C82G A111C A120C A145U C169U U176C, the reverse-splicing fitness was 0.0123.

As to C82G A111C A120C A145U C169U U176A, the reverse-splicing fitness was 0.0126.

C82G A111C A120C A145U C169U U176G: the reverse-splicing fitness came to 0.00641.

For C82G A111C A120G, the reverse-splicing fitness was 0.0185.

Consider C82G A111C A120C, for which the reverse-splicing fitness worked out at 0.0556.

Take C82A C150A C169A U176A: the reverse-splicing fitness turned out to be 0.0211.

Turning to C82A C150A C169A U176G, the reverse-splicing fitness was 0.007.

In the case of C82A C150A C169A U176C, the reverse-splicing fitness is 0.0177.

For C82G A111C A120C A145C C150U C169A, the reverse-splicing fitness was determined as 0.00728.

On to C82G A111C A120C A145C C150U C169U, for which the reverse-splicing fitness was 0.011.

Regarding C82G A111C A120C A145C C150U C169G, the reverse-splicing fitness worked out at 0.00697.

For the variant C82G A111C A120C A145G C169U, the reverse-splicing fitness was determined as 0.0139.

As to C82G A111C A120C A145G C169A, the reverse-splicing fitness is 0.00871.

Turning to C82G A111C A120C A145G C169G, the reverse-splicing fitness is 0.00771.

For C82G A111C A120C A145C C169G U176G, the reverse-splicing fitness turned out to be 0.0061.

Consider C82G A111C A120C A145C C169G U176C, for which the reverse-splicing fitness worked out at 0.0205.

In the case of C82G A111C A120C A145C C169G U176A, the reverse-splicing fitness was 0.0259.

Regarding C82G A111C A120C A145C C169A U176G, the reverse-splicing fitness stood at 0.0064.

Consider C82G A111C A120C A145C C169A U176A, for which the reverse-splicing fitness was 0.0175.

As for C82G A111C A120C A145C C169A U176C, the reverse-splicing fitness stood at 0.0118.

For the variant C82G A111C A120C A145C C150A C169U U176A, the reverse-splicing fitness stood at 0.0176.

With C82G A111C A120C A145C C150A C169U U176G, the reverse-splicing fitness was 0.00799.

Consider C82G A111C A120C A145C C150A C169U U176C, for which the reverse-splicing fitness was 0.0123.

On to C82G A111C A120C A145G C150U, for which the reverse-splicing fitness was found to be 0.0408.

On to C82G A111C A120C A145G C150A, for which the reverse-splicing fitness turned out to be 0.0148.

Consider C82G A111C A120C A145G C150G, for which the reverse-splicing fitness stood at 0.0102.

For the variant C82A C169U U176C, the reverse-splicing fitness was 0.0153.

With C82A C169U U176G, the reverse-splicing fitness came out at 0.00459.

C82A C169U U176A: the reverse-splicing fitness was 0.0166.

As for C82G A111C A120C A145G C150A C169U U176G, the reverse-splicing fitness came to 0.00795.

Turning to C82G A111C A120C A145G C150A C169U U176A, the reverse-splicing fitness stood at 0.0157.

In the case of C82G A111C A120C A145G C150A C169U U176C, the reverse-splicing fitness amounted to 0.0139.

For the variant C82G A111C A120C A145C C150U C169A U176G, the reverse-splicing fitness is 0.00692.

Take C82G A111C A120C A145C C150U C169A U176C: the reverse-splicing fitness was found to be 0.00824.

For the variant C82G A111C A120C A145C C150U C169A U176A, the reverse-splicing fitness is 0.0125.

Take C82G A111C A120C U176C: the reverse-splicing fitness worked out at 0.0268.

Take C82G A111C A120C U176A: the reverse-splicing fitness was 0.018.

Regarding C82G A111C A120C U176G, the reverse-splicing fitness is 0.00944.

As to C82G A111C A120C A145C C150U, the reverse-splicing fitness worked out at 0.0168.

For C82G A111C A120C A145C C150G, the reverse-splicing fitness worked out at 0.0093.

Consider C82G A111C A120C A145C C150A, for which the reverse-splicing fitness is 0.00907.

As to C82G A111C A120C C150U C169A, the reverse-splicing fitness was determined as 0.0099.

In the case of C82G A111C A120C C150U C169U, the reverse-splicing fitness came to 0.0139.

With C82G A111C A120C C150U C169G, the reverse-splicing fitness came to 0.00825.

With C82G A111C A120C A145U C150G C169G U176A, the reverse-splicing fitness amounted to 0.0088.

Consider C82G A111C A120C A145U C150G C169G U176G, for which the reverse-splicing fitness came to 0.00673.

With C82G A111C A120C A145U C150G C169G U176C, the reverse-splicing fitness is 0.00759.

Take C82A C150U C169U U176G: the reverse-splicing fitness came out at 0.00577.

For C82A C150U C169U U176A, the reverse-splicing fitness came to 0.0141.

Turning to C82A C150U C169U U176C, the reverse-splicing fitness was 0.016.

Take C82G A111C A120C A145U C150G U176G: the reverse-splicing fitness turned out to be 0.00383.

As for C82G A111C A120C A145U C150G U176C, the reverse-splicing fitness is 0.0099.

As to C82G A111C A120C A145U C150G U176A, the reverse-splicing fitness came out at 0.00549.

C82G A111C A120C C150G C169A: the reverse-splicing fitness turned out to be 0.00742.

Regarding C82G A111C A120C C150G C169U, the reverse-splicing fitness is 0.00996.

Regarding C82G A111C A120C C150G C169G, the reverse-splicing fitness is 0.00702.

On to C82G A111C A120C A145G C150A C169G, for which the reverse-splicing fitness came out at 0.00768.

For C82G A111C A120C A145G C150A C169A, the reverse-splicing fitness amounted to 0.0122.

C82G A111C A120C A145G C150A C169U: the reverse-splicing fitness turned out to be 0.0117.

As to C82G A111C A120C A145U C150U C169U U176G, the reverse-splicing fitness is 0.00674.

C82G A111C A120C A145U C150U C169U U176C: the reverse-splicing fitness stood at 0.0153.

With C82G A111C A120C A145U C150U C169U U176A, the reverse-splicing fitness was 0.015.

Take C82A C150G: the reverse-splicing fitness worked out at 0.0487.

On to C82A C150U, for which the reverse-splicing fitness amounted to 0.367.

Take C82A C150A: the reverse-splicing fitness stood at 0.0666.

For the variant C82G A111C A120C A145U C150G C169A U176C, the reverse-splicing fitness amounted to 0.0108.

As for C82G A111C A120C A145U C150G C169A U176G, the reverse-splicing fitness was 0.00726.

C82G A111C A120C A145U C150G C169A U176A: the reverse-splicing fitness came out at 0.0121.

Regarding C82G A111C A120C A145C C169U U176G, the reverse-splicing fitness was determined as 0.00508.
